Experimental data from paper doi:10.1101/589119.

Biological target: core Cascade subunits (crRNA, Cas11, Cas7, Cas5, Cas6e) (E. coli K12) (UniProt Q46899)
Assay: single-particle tracking PALM

Sequence of UniProt Q46899 (Q46899 whole entry, looked up): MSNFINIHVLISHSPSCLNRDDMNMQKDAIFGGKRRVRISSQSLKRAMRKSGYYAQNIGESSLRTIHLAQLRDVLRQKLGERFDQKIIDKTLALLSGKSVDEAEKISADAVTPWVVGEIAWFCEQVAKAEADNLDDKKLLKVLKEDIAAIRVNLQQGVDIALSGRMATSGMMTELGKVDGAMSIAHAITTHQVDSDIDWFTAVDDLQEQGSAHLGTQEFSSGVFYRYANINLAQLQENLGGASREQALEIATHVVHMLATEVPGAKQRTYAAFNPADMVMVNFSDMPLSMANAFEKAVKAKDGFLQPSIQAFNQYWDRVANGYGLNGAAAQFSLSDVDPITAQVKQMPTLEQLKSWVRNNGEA

fraction of Cas8e in Cascade complexes: 60%
Substance: PAmCherry2-Cas8e (Cascade subunit Cas8e with a photoactivatable fluorescent protein fused to its N-terminus) (natural protein)
